Results from US20200016237A1.

Tests used:
[1] = target: Neogenin on murine brain-derived endothelial cells (b.end3) (mouse) (UniProt P97798); assay: cell-based or functional assay
[2] = target: Alkaline Phosphatase-tagged extracellular domains of Neogenin (Ec-Neogenin-AP); assay: plate competition binding assay, His-tagged protein coated, AP-tagged protein detected with pNPP at 405 nm; sRGMa pre-incubated with Ec-Neogenin-AP

Sequence of Neogenin on murine brain-derived endothelial cells (b.end3) (mouse) (P97798 37-1492): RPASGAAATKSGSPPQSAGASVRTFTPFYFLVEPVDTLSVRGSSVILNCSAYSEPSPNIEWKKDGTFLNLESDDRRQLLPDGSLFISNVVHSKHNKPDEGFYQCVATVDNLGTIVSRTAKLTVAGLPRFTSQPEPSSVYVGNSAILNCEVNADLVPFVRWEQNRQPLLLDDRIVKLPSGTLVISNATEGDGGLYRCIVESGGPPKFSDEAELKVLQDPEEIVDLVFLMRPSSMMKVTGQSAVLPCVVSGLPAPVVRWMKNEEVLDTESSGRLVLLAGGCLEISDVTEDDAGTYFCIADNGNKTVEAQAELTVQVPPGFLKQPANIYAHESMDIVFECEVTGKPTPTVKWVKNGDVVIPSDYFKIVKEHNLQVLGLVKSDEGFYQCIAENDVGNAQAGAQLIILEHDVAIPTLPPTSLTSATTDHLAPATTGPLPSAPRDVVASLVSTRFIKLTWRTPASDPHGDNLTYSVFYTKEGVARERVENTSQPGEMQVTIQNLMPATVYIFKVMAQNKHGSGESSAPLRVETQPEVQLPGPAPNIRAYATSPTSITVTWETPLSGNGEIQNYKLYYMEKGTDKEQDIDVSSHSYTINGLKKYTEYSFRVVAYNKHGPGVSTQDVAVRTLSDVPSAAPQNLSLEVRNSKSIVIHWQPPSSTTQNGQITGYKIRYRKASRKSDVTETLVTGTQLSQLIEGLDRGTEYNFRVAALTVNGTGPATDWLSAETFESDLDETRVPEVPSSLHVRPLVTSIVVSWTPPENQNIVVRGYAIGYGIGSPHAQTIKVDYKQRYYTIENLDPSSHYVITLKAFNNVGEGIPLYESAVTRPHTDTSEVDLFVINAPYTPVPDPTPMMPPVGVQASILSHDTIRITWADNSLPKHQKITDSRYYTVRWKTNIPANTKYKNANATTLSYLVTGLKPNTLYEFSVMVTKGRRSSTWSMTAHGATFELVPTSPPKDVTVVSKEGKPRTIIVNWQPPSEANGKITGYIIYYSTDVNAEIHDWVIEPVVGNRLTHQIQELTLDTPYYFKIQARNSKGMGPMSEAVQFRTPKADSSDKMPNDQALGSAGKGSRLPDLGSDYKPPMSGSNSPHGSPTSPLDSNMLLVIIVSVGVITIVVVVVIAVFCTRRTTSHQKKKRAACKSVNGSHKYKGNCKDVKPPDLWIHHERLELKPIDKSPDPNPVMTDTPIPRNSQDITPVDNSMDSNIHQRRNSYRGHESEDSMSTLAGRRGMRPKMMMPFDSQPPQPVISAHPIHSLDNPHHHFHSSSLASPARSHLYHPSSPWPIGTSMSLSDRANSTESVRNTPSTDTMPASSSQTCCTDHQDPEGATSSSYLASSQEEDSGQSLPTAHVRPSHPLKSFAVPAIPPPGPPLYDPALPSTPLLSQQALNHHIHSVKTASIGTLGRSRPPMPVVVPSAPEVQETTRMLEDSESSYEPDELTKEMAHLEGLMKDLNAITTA

fold decrease in Claudin 5 levels in b.End3 cells (Western blot) [1]: 2 fold
fold reduction of binding intensity of RGMc to Neogenin against BSA control [2]: 3 fold
Substance: soluble RGMa (sRGMa), mouse, His tag replacing the GPI anchor (from UniProt Q6PCX7 170-427) (ligand)
